Laboratory results reported in patent US20150110787A1 (SAMSUNG ELECTRONICS, published 2015).

T1: FLAG-tagged human VEGF-C (Accession # P49767) (human, UniProt P49767 112-227, limits assumed)
T1 construct: not shown: FLAG tag
T1 sequence (looked up): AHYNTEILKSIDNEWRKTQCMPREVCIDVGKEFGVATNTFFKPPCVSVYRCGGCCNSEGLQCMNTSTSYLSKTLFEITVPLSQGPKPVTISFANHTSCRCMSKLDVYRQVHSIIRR

T2: human VEGF-C polypeptide (R&D Systems; Accession # P49767) (human, UniProt P49767 103-227, limits assumed)
T2 construct: Bought protein; also called hVEGF-C; Recombinant VEGF-C protein (R&D Systems)
T2 sequence (looked up): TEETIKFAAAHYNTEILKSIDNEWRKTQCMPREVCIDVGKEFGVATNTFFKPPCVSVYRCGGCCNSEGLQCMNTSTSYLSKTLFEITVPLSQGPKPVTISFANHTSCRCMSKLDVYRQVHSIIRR


How the values were obtained:
[1] = target: T1, FLAG-tagged human VEGF-C (Accession # …); test: competitive ELISA: human VEGR-R3-Fc coated, 200 ng/ml FLAG-tagged human VEGF-C plus scFv (1-1000 nM), anti-FLAG-HRP; competitor VEGR-R3-Fc
Protocol: To examine the effect of the anti-VEGF-C antibody purified in Example 2 on the inhibition of VEGF-C:VEGR-R3 binding, a competitive ELISA, which is used for verification of molecular interaction, was performed. MaxiSorp™ flat-bottom plate (Nunc) of 96-wells was coated with […] of human VEGR-R3-Fc (R&D Systems. Accession No. P35916) which is a fusion protein composed of human VEGR-R3 and Fc of human IgG1. Thereafter, the plate was washed 5 times with phosphate buffer saline (PBS) supplemented with 0.05%(v/v) Tween-20, and then blocked with PBS supplemented with 1%(v/v) bovine serum albumin (BSA; Sigma) at room temperature for 2 hours.
To perform the VEGF-C:VEGR-R3 neutralization ELISA, the anti-VEGF-C antibody (concentration: 1 nM, 10 nM, 100 nM, or 1000 nM) purified in Example 2 was added to each well coated with the human VEGR-R3-Fc, together with a mixture of 1%(v/v) BSA and 200 ng/ml of FLAG-tagged human VEGF-C (Accession # P49767), and incubated at room temperature for 2 hours. Thereafter, the plate was washed 5 times with PBS supplemented with 0.05% (v/v) Tween-20. […] Then, the reaction was stopped by addition of 50 μl of 5N H₂SO₄ solution, and OD450 value was measured using plate reader (Molecular Devices).

[2] = target: T2, human VEGF-C polypeptide (R&D Systems; …); test: SPR, BIAcore T100; antibody captured on anti-human Fc antibody on a CM5 chip, recombinant VEGF-C flowed from 200 nM
Protocol: To accurately measure the affinity of the anti-VEGF-C antibody to its antigen, VEGF-C, Surface Plasmon Resonance (SPR) method was conducted using BIAcore T100 (GE Healthcare). The SPR method is based on a principle that the refractive index of light passing through a sensor chip varied depending on the condition of the substance coated on the sensor chip. If an antibody or an antigen is flowed on the chip which is coated with an antigen or an antibody, the binding between the antigen and the antibody leads to change in refractive index, and Kd value can be calculated based on the refractive index.
25 μg/ml of anti-human Fc antibody (Sigma) was fixed on CM5 sensor chip (GE Healthcare) using pH 5.0 sodium acetate solution and amine coupling kit (GE Healthcare). 2 μg/ml of the anti-VEGF-C antibody obtained in Example 2 was added on the chip to be captured.
Recombinant VEGF-C protein (R&D Systems) was serially diluted with HBS-P (GE-Health) solution starting from the concentration of 200 nM and flowed on the chip, leading to binding (on) to and dissociating (off) from the antibody, thereby measuring the antigen-antibody affinity.

[3] = target: T2, human VEGF-C polypeptide (R&D Systems; …); test: ELISA on coated human VEGF-C (1 ug/ml), anti-HA-HRP detection; 50% binding concentration, given as Kd
Protocol: ELISA for verifying the binding affinity of the anti-VEGF-C antibody in scFv form purified in Example 2 to its antigen was carried out. MaxiSorp™ flat-bottom plate (Nunc) of 96-wells was coated with 1 μg/ml of human VEGF-C(R&D Systems) for 16 hours. The plate was then washed 5 times with phosphate buffer saline (PBS) supplemented with 0.05%(v/v) Tween-20, and then blocked with PBS supplemented with 1%(v/v) bovine serum albumin (BSA; Sigma) at room temperature for 2 hours. The anti-VEGF-C antibody in scFv form purified in Example 2 was added to each well of the plate and was incubated at room temperature for 2 hours.
The plate was washed 5 times with PBS supplemented with 0.05% (v/v) Tween-20. HRP-conjugated anti-HA antibody (HA-probe Antibody (F-7) HRP conjugated) (Santacruz) diluted with PBS supplemented with 1%(v/v) BSA was added at the dilution ratio of 1:1,000 (v/v) and was incubated at room temperature for 1 hour. The reacted well was washed 5 times with PBS supplemented with 0.1%(v/v) Tween-20. Finally, tetramethylbenzidine (TMB) substrate (Cell Signal) was added to each well of the plate at the amount of 100 μl to induce coloring reaction at room temperature for 3 minutes. Then, the reaction was stopped with 50 μl of 5N H₂SO₄ solution, and OD450 value was measured on plate reader (Molecular Devices).

[4] = target: T1, FLAG-tagged human VEGF-C (Accession # …); test: competitive ELISA: human VEGR-R3-Fc coated, 200 ng/ml FLAG-tagged human VEGF-C plus IgG (1-1000 nM), anti-FLAG-HRP; competitor VEGR-R3-Fc
Protocol: MaxiSorp™ flat-bottom plate (Nunc) of 96-wells was coated with […] of human VEGR-R3-Fc (R&D Systems. Accession No. P35916) which is a protein produced by coupling human VEGR-R3 with Fc of human IgG1. Thereafter, the plate was washed 5 times with phosphate buffer saline (PBS) supplemented with 0.05%(v/v) Tween-20, and then blocked with PBS supplemented with 1%(v/v) bovine serum albumin (BSA; Sigma) at room temperature for 2 hours.
For performing the VEGF-R3:VEGF-C neutralization ELISA, the anti-VEGF-C antibody (concentration: 1 nM, 10 nM, 100 nM, or 1000 nM) in IgG form purified in Example 6 was added to each well of the human VEGR-R3-Fc coated plate, together with a mixture of 1%(v/v) BSA and 200 ng/ml of FLAG-tagged human VEGF-C (Accession # P49767), and then, the plate was reacted at room temperature for 2 hours. Thereafter, the plate was washed 5 times with PBS supplemented with 0.05% (v/v) Tween-20. HRP-conjugated anti-FLAG antibody (SIGMA) was diluted with PBS supplemented with 1%(v/v) BSA at the dilution ratio of 1:5,000 (v/v), and added to each well in the amount of 100 μl, to react at room temperature for 1 hour. The reacted well was washed 5 times with PBS supplemented with 0.1%(v/v) Tween-20. […] Then, the reaction was stopped with 50 μl of 5N H₂SO₄ solution, and OD450 value was measured on plate reader (Molecular Devices).

Row | Binder | IC50 [1] | Kd [2] | koff [2] | kon [2] | Kd [3] | IC50 [4]
1 | SAIT-VEGFC-AB-4A2, anti-VEGF-C antibody in scFv form purified in Example 2 (scFv, V domains shown, Expressed in the E. coli periplasm and partially purified on Ni-NTA; also called anti-VEGF-C scFv antibody) VH: EVQLLESGGGLVQPGGSLRLSCAASGFTFSSYDMSWVRQAPGKGLEWVSAISYDNGSTYYADSVKGRFTISRDNSKNTLYLQMNSLRAEDTAVYYCARDPYLARLNTFDYWGQGTLVTVSS VL: QSVLTQPPSASGTPGQRVTISCSGSSSNIGSNNVSWYQQLPGTAPKLLIYYNSHRPSGVPDRFSGSKSGTSASLAISGLRSEDEADYYCATWDSSLNGYVFGGGTKLTVL | 33.4 nM | 0.345 nM | 0.00258 s⁻¹ | 7.45e+06 M⁻¹ s⁻¹ | 26.2 nM | 
2 | SAIT-VEGFC-AB-4A2, anti-VEGF-C antibody in IgG form purified in Example 6 (antibody, V domains shown, VH was cloned into pOPTI-VAC, which carries the human IgG1 constant region and Fc; Expressed in 293-F cells and purified on Protein A) VH: EVQLLESGGGLVQPGGSLRLSCAASGFTFSSYDMSWVRQAPGKGLEWVSAISYDNGSTYYADSVKGRFTISRDNSKNTLYLQMNSLRAEDTAVYYCARDPYLARLNTFDYWGQGTLVTVSS VL: QSVLTQPPSASGTPGQRVTISCSGSSSNIGSNNVSWYQQLPGTAPKLLIYYNSHRPSGVPDRFSGSKSGTSASLAISGLRSEDEADYYCATWDSSLNGYVFGGGTKLT |  |  |  |  |  | 9.2 nM
